In article PMC10786891, “Massively parallel profiling of RNA-targeting CRISPR-Cas13d”:

T1: EsCas13d, nuclease-dead (Eubacterium siraeum, UniProt B0MS50, R295A;H300A;R849A;H854A)
T1 sequence: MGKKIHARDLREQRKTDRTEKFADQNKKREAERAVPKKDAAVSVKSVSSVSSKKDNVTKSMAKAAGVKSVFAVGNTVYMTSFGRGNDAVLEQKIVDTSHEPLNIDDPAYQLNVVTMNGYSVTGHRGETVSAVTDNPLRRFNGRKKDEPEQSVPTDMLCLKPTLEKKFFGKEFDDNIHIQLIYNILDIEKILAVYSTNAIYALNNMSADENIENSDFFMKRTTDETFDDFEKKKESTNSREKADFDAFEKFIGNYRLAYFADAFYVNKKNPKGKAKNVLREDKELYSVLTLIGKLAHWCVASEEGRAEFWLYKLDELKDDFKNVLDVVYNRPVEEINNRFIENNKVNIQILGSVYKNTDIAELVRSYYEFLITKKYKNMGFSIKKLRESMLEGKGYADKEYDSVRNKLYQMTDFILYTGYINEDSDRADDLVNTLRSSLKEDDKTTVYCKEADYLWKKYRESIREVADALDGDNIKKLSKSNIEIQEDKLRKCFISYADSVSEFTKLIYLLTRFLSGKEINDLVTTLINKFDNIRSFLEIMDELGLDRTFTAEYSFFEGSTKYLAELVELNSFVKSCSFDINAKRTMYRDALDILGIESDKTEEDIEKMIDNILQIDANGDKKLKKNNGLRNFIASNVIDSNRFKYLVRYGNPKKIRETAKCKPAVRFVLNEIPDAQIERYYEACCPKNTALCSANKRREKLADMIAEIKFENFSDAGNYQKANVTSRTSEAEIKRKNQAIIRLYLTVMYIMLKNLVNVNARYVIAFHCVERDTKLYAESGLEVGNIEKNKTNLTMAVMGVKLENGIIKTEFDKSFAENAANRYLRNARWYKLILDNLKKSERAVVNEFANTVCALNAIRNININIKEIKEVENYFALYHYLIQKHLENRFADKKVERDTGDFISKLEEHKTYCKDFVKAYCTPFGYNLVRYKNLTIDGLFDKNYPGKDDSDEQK


Target: T1, EsCas13d, nuclease-dead
Experiment: crRNA (strand 1, pre-loaded); Mg2+; 40 mM Tris-HCl pH 7.5, 150 mM NaCl, 6 mM MgCl2, 1 mM DTT, 0.1% Tween-20, 0.2 mg/ml BSA; 25 C; 10 min per concentration, then washed
Conditions: tags: His6-TwinStrep-SUMO cleaved; N-terminal SNAP kept (SNAP-Surface 488); label: 3' end held by stalled T7 RNA polymerase

Binder | Kd [µM]
target 1 A20U,C22U (mixed) RNA 1: CACCCGUGCAAAAAUGCAGGGGUCUAAAACUGAGCGGAUAACCUCUCUAUGG RNA 2: GGGAAUGGAUCCACAUCUACGAAUUCGUAUCUUAGAGAGGUUAUCCGCUCACCGAGAUCGGAAGAGCACACGU | 0.045 ± 0.008
target 1 insA 3' of 17,insG 3' of 11 (mixed) RNA 1: CACCCGUGCAAAAAUGCAGGGGUCUAAAACUGAGCGGAUAACCUCUCUAUGG RNA 2: GGGAAUGGAUCCACAUCUACGAAUUCGUACCAUAGAAGAGGUGUAUCCGCUCACCGAGAUCGGAAGAGCACACGU | 0.086 ± 0.021
target 1 del2,del9 (mixed) RNA 1: CACCCGUGCAAAAAUGCAGGGGUCUAAAACUGAGCGGAUAACCUCUCUAUGG RNA 2: GGGAAUGGAUCCACAUCUACGAAUUCGUACCAUAGAGAGGUUUCCGCUACCGAGAUCGGAAGAGCACACGU | 0.063 ± 0.009
target 1 G13A,A20C (mixed) RNA 1: CACCCGUGCAAAAAUGCAGGGGUCUAAAACUGAGCGGAUAACCUCUCUAUGG RNA 2: GGGAAUGGAUCCACAUCUACGAAUUCGUACCCUAGAGAAGUUAUCCGCUCACCGAGAUCGGAAGAGCACACGU | 0.075 ± 0.029
target 1 C7U,U10A (mixed) RNA 1: CACCCGUGCAAAAAUGCAGGGGUCUAAAACUGAGCGGAUAACCUCUCUAUGG RNA 2: GGGAAUGGAUCCACAUCUACGAAUUCGUACCAUAGAGAGGUAAUUCGCUCACCGAGAUCGGAAGAGCACACGU | 0.0078 ± 0.0004
target 1 U3C,C6A (mixed) RNA 1: CACCCGUGCAAAAAUGCAGGGGUCUAAAACUGAGCGGAUAACCUCUCUAUGG RNA 2: GGGAAUGGAUCCACAUCUACGAAUUCGUACCAUAGAGAGGUUAUCAGCCCACCGAGAUCGGAAGAGCACACGU | 0.0142 ± 0.0015
target 1 insG 3' of 11,insA 3' of 7 (mixed) RNA 1: CACCCGUGCAAAAAUGCAGGGGUCUAAAACUGAGCGGAUAACCUCUCUAUGG RNA 2: GGGAAUGGAUCCACAUCUACGAAUUCGUACCAUAGAGAGGUGUAUCACGCUCACCGAGAUCGGAAGAGCACACGU | 0.0217 ± 0.0018
target 1 insA 3' of 21,insU 3' of 15 (mixed) RNA 1: CACCCGUGCAAAAAUGCAGGGGUCUAAAACUGAGCGGAUAACCUCUCUAUGG RNA 2: GGGAAUGGAUCCACAUCUACGAAUUCGUACCAAUAGAGUAGGUUAUCCGCUCACCGAGAUCGGAAGAGCACACGU | 0.0316 ± 0.0035
target 1 insG 3' of 22,insU 3' of 21 (mixed) RNA 1: CACCCGUGCAAAAAUGCAGGGGUCUAAAACUGAGCGGAUAACCUCUCUAUGG RNA 2: GGGAAUGGAUCCACAUCUACGAAUUCGUACGCUAUAGAGAGGUUAUCCGCUCACCGAGAUCGGAAGAGCACACGU | 0.03 ± 0.0025
target 1 insA 3' of 19,insC 3' of 14 (mixed) RNA 1: CACCCGUGCAAAAAUGCAGGGGUCUAAAACUGAGCGGAUAACCUCUCUAUGG RNA 2: GGGAAUGGAUCCACAUCUACGAAUUCGUACCAUAAGAGACGGUUAUCCGCUCACCGAGAUCGGAAGAGCACACGU | ~0.07
target 1 G5C,A16C (mixed) RNA 1: CACCCGUGCAAAAAUGCAGGGGUCUAAAACUGAGCGGAUAACCUCUCUAUGG RNA 2: GGGAAUGGAUCCACAUCUACGAAUUCGUACCAUAGCGAGGUUAUCCCCUCACCGAGAUCGGAAGAGCACACGU | 0.088 ± 0.015
target 1 insA 3' of 21,insG 3' of 8 (mixed) RNA 1: CACCCGUGCAAAAAUGCAGGGGUCUAAAACUGAGCGGAUAACCUCUCUAUGG RNA 2: GGGAAUGGAUCCACAUCUACGAAUUCGUACCAAUAGAGAGGUUAUGCCGCUCACCGAGAUCGGAAGAGCACACGU | 0.0298 ± 0.0028
target 1 insA 3' of 13,insC 3' of 9 (mixed) RNA 1: CACCCGUGCAAAAAUGCAGGGGUCUAAAACUGAGCGGAUAACCUCUCUAUGG RNA 2: GGGAAUGGAUCCACAUCUACGAAUUCGUACCAUAGAGAGAGUUACUCCGCUCACCGAGAUCGGAAGAGCACACGU | 0.008 ± 0.0004
target 1 insC 3' of 19,insG 3' of 7 (mixed) RNA 1: CACCCGUGCAAAAAUGCAGGGGUCUAAAACUGAGCGGAUAACCUCUCUAUGG RNA 2: GGGAAUGGAUCCACAUCUACGAAUUCGUACCAUCAGAGAGGUUAUCGCGCUCACCGAGAUCGGAAGAGCACACGU | 0.0241 ± 0.0013
target 1 insC 3' of 20,insU 3' of 17 (mixed) RNA 1: CACCCGUGCAAAAAUGCAGGGGUCUAAAACUGAGCGGAUAACCUCUCUAUGG RNA 2: GGGAAUGGAUCCACAUCUACGAAUUCGUACCACUAGUAGAGGUUAUCCGCUCACCGAGAUCGGAAGAGCACACGU | 0.0169 ± 0.0022
target 1 U8A,U11G (mixed) RNA 1: CACCCGUGCAAAAAUGCAGGGGUCUAAAACUGAGCGGAUAACCUCUCUAUGG RNA 2: GGGAAUGGAUCCACAUCUACGAAUUCGUACCAUAGAGAGGGUAACCGCUCACCGAGAUCGGAAGAGCACACGU | 0.0127 ± 0.0005
target 1 insG 3' of 14,insG 3' of 4 (mixed) RNA 1: CACCCGUGCAAAAAUGCAGGGGUCUAAAACUGAGCGGAUAACCUCUCUAUGG RNA 2: GGGAAUGGAUCCACAUCUACGAAUUCGUACCAUAGAGAGGGUUAUCCGCGUCACCGAGAUCGGAAGAGCACACGU | 0.0075 ± 0.0008
target 1 complement block 7-13 (mixed) RNA 1: CACCCGUGCAAAAAUGCAGGGGUCUAAAACUGAGCGGAUAACCUCUCUAUGG RNA 2: GGGAAUGGAUCCACAUCUACGAAUUCGUACCAUAGAGACCAAUAGCGCUCACCGAGAUCGGAAGAGCACACGU | 0.079 ± 0.016
target 1 insU 3' of 14 (mixed) RNA 1: CACCCGUGCAAAAAUGCAGGGGUCUAAAACUGAGCGGAUAACCUCUCUAUGG RNA 2: GGGAAUGGAUCCACAUCUACGAAUUCGUACCAUAGAGAUGGUUAUCCGCUCACCGAGAUCGGAAGAGCACACGU | 0.038 ± 0.004
target 1 C6G,U19G (mixed) RNA 1: CACCCGUGCAAAAAUGCAGGGGUCUAAAACUGAGCGGAUAACCUCUCUAUGG RNA 2: GGGAAUGGAUCCACAUCUACGAAUUCGUACCAGAGAGAGGUUAUCGGCUCACCGAGAUCGGAAGAGCACACGU | 0.042 ± 0.005
target 1 insC 3' of 10,insG 3' of 7 (mixed) RNA 1: CACCCGUGCAAAAAUGCAGGGGUCUAAAACUGAGCGGAUAACCUCUCUAUGG RNA 2: GGGAAUGGAUCCACAUCUACGAAUUCGUACCAUAGAGAGGUUCAUCGCGCUCACCGAGAUCGGAAGAGCACACGU | 0.0168 ± 0.0014
target 1 U3A,A18C (mixed) RNA 1: CACCCGUGCAAAAAUGCAGGGGUCUAAAACUGAGCGGAUAACCUCUCUAUGG RNA 2: GGGAAUGGAUCCACAUCUACGAAUUCGUACCAUCGAGAGGUUAUCCGCACACCGAGAUCGGAAGAGCACACGU | 0.05 ± 0.006
target 1 insU 3' of 22,insA 3' of 15 (mixed) RNA 1: CACCCGUGCAAAAAUGCAGGGGUCUAAAACUGAGCGGAUAACCUCUCUAUGG RNA 2: GGGAAUGGAUCCACAUCUACGAAUUCGUACUCAUAGAGAAGGUUAUCCGCUCACCGAGAUCGGAAGAGCACACGU | 0.0137 ± 0.0031
target 1 insG 3' of 2,insC 3' of 1 (mixed) RNA 1: CACCCGUGCAAAAAUGCAGGGGUCUAAAACUGAGCGGAUAACCUCUCUAUGG RNA 2: GGGAAUGGAUCCACAUCUACGAAUUCGUACCAUAGAGAGGUUAUCCGCUCGACCCGAGAUCGGAAGAGCACACGU | 0.0104 ± 0.0013
target 1 insG 3' of 20,insG 3' of 7 (mixed) RNA 1: CACCCGUGCAAAAAUGCAGGGGUCUAAAACUGAGCGGAUAACCUCUCUAUGG RNA 2: GGGAAUGGAUCCACAUCUACGAAUUCGUACCAGUAGAGAGGUUAUCGCGCUCACCGAGAUCGGAAGAGCACACGU | 0.029 ± 0.005
target 1 U3A,C6G (mixed) RNA 1: CACCCGUGCAAAAAUGCAGGGGUCUAAAACUGAGCGGAUAACCUCUCUAUGG RNA 2: GGGAAUGGAUCCACAUCUACGAAUUCGUACCAUAGAGAGGUUAUCGGCACACCGAGAUCGGAAGAGCACACGU | 0.00527 ± 0.00015
target 1 insU 3' of 21,insU 3' of 1 (mixed) RNA 1: CACCCGUGCAAAAAUGCAGGGGUCUAAAACUGAGCGGAUAACCUCUCUAUGG RNA 2: GGGAAUGGAUCCACAUCUACGAAUUCGUACCUAUAGAGAGGUUAUCCGCUCAUCCGAGAUCGGAAGAGCACACGU | 0.0242 ± 0.0018
target 1 C2U,G13U (mixed) RNA 1: CACCCGUGCAAAAAUGCAGGGGUCUAAAACUGAGCGGAUAACCUCUCUAUGG RNA 2: GGGAAUGGAUCCACAUCUACGAAUUCGUACCAUAGAGAUGUUAUCCGCUUACCGAGAUCGGAAGAGCACACGU | 0.068 ± 0.02
